Source: paper PMC10721955

Biological target: Flag-tagged mouse MRTF-A (MAL fl), in vitro translated
Assay: in vitro protein binding assay (IP/IB of in vitro translated tagged proteins), quantified
Conditions: IP: HA-gel (HA-CRP2), three independent experiments, parent: 100, read off a plot

Row | percent of parent | Substance
1 | 22% | HA-tagged human CRP2 (cysteine-and glycine-rich protein 2), in vitro translated (from UniProt Q16527) 153L/D; 158L/D
2 | 21% | HA-tagged human CRP2 (cysteine-and glycine-rich protein 2), in vitro translated (from UniProt Q16527) 154E/L; 156T/D; 157T/D
